The source of these data is publication doi:10.1101/2023.10.23.563687.

This assay addresses full-length BCL6 construct overexpressed in HEK293T cells (ternary complex nanoBRET) (UniProt P41182).

Chain of full-length CDK9 construct overexpressed in HEK293T cells (ternary complex nanoBRET) (P50750 whole entry, one chain of several): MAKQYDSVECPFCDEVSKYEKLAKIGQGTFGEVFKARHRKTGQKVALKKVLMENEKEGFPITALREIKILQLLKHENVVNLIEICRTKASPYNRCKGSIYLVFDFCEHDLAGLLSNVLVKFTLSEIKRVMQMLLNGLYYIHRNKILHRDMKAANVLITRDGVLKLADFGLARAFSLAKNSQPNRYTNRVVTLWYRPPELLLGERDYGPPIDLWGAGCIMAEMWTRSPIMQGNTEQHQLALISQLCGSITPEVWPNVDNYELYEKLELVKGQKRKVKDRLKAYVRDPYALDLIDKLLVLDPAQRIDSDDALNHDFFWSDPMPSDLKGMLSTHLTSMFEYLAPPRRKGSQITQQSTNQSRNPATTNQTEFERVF

Substance “full-length CDK9 construct overexpressed in HEK293T cells (ternary complex nanoBRET) (from UniProt P50750 1-372) (enzyme)” returned a cell killing of SUDHL5 DLBCL cells by CDK-TCIP1, 72-hour cell viability assay of 6.9 nM.
